Measured values published in paper PMC5799168 (Scientific Reports, 2018).
Substitutions are numbered along the chain they refer to. In names and notes the source's numbering stands.

Tested on: wild-type and mutant Ndi1
Experiment: Kinetic parameters of the oxidoreductase activity of wild-type and mutant Ndi1 for ubiquinone-1
Format: biochemical, Saccharomyces cerevisiae
Conditions: for Km: apparent Km for ubiquinone-1 (2.4–60 µM); for Km / Vmax: NADH fixed at 100 µM; for increase of Km value for ubiquinone-1 in comparison to wild-type enzyme / Vmax, % of the wild-type activity: relative to wild-type Ndi1; for Vmax: ubiquinone-1 as substrate (2.4–60 µM)
Method: This unique structure appears to be related to the competitive nature of the inhibition of Ndi1 oxidoreductase activity by stigmatellin. It is therefore hypothesized that L444, I459, R460, and S461, which interact with stigmatellin at the STG-1a site, are also involved in the binding of the substrate ubiquinone (Fig. 5). This hypothesis was evaluated by examining the effects of mutations of the proximal L444 and I459 on the kinetics of the enzymatic reaction of Ndi1. The effect of the mutation of S484, which specifically interacts with stigmatellin at the STG-1b site, was examined as a control. Furthermore, the effects of mutations of W63, P92, A393, Q394, H397, L447, Y482, M485, and L487, which interact with the aromatic head group of stigmatellin at the STG-1a and STG-1b sites, were also examined. Moreover, to investigate the functional role of the STG-2 site in ubiquinone binding, a mutation was also introduced to R479.
NADH-ubiquinone oxidoreductase activity was measured as described previously. In brief, the reaction was started by adding 100 µM NADH to the enzyme mixture containing 10 ng/mL Ndi1, 50 mM sodium phosphate (pH 6.0) and 1 mM EDTA, which was pre-incubated with various concentrations of ubiquinone-1 for 1 min. The decrease in 340 nm absorbance was measured as an indication of the oxidation of NADH (ε = 6.22 mM^−1 cm^−1) with a Shimadzu UV2000 spectrophotometer (Kyoto, Japan). The enzymatic activity obtained with 100 µM NADH and 60 µM ubiquinone-1 in the absence of any inhibitors (100% activity) catalyzed the oxidation of 1,890 μmol NADH/min/mg Ndi1. The concentrations of inhibitors required to obtain the half-maximal inhibition (IC50) were estimated by non-linear regression dose-response curves. The inhibition mode of each inhibitor for ubiquinone-1 was determined by the intersection point in double-reciprocal plots (Fig. 2B–E). To objectively evaluate the inhibition mode, the data of the inhibition kinetics were fitted to the Eq. (1) of mixed model inhibition in the Prism6 software program (GraphPad Software, Inc., La Jolla, CA).1 V=Vmax[S]/[S](1+[I]/αKi)+Km(1+[I]/Ki) […]
To determine the kinetic parameters of wild-type and mutant enzymes for ubiquinone-1, the NADH oxidation rates were measured in a fixed concentration of NADH (100 µM) and different concentrations of ubiquinone-1 (2.4–60 µM). Apparent Km and Vmax values were obtained by fitting a data set of initial velocity versus substrate concentration to the Michaelis-Menten model equation in the Prism6 software program.
Site-directed mutagenesis. The amino acid replacements of Ndi1 were basically performed with PrimeSTAR mutagenesis basal kit (Takara, Japan) using pET16b(NDI1-m) (2) and a synthetic oligonucleotide primer set (Table S2). The mutagenesis of H397 was performed with a QuikChange II XL site-directed mutagenesis kit (Stratagene, CA). Each mutation was confirmed through DNA sequencing (DNA sequencing service, Eurofins). The purification procedure of wild-type and mutant enzymes, used for the determination of the kinetic parameters (Table 2), was basically the same as the above procedure, without the replacement of the detergent from Triton X -100 with DDM. After washing the enzyme with buffer A containing 0.1% Triton X-100 and 15 mM histidine, 0.02% Triton X-100 was added to all buffer as a substitute for DDM. With the exception of 5 mutants containing L444D, I459A, […]
yield of the wild-type enzyme. […]

B1: L444D: recombinant Ndi1 mutant L444D (protein, UniProt P32340 27-513, looked up, variant L444D)
Rotenone-insensitive …: STGVENSGAGPTSFKTMKVIDPQHSDKPNVLILGSGWGAISFLKHIDTKKYNVSIISPRSYFLFTPLLPSAPVGTVDEKSIIEPIVNFALKKKGNVTYYEAEATSINPDRNTVTIKSLSAVSQLYQPENHLGLHQAEPAEIKYDYLISAVGAEPNTFGIPGVTDYGHFLKEIPNSLEIRRTFAANLEKANLLPKGDPERRRLLSIVVVGGGPTGVEAAGELQDYVHQDLRKFLPALAEEVQIHLVEALPIVLNMFEKKLSSYAQSHLENTSIKVHLRTAVAKVEEKQLLAKTKHEDGKITEETIPYGTLIWATGNKARPVITDLFKKIPEQNSSKRGLAVNDFLQVKGSNNIFAIGDNAFAGLPPTAQVAHQEAEYLAKNFDKMAQIPNFQKNLSSRKDKIDLLFEENNFKPFKYNDDGALAYLGSERAIATIRSGKRTFYTGGGLMTFYLWRILYLSMILSARSRLKVFFDWIKLAFFKRDFFKGL
Q: How did the Km turn out when B1 was run?
A: 37.6 ± 3.9 µM

Q: And the “increase of Km value for ubiquinone-1 in comparison to wild-type enzyme” value (“increase of Km value” for short)?
A: 1.7 fold

Q: And the Vmax?
A: 447 ± 6.8 µmol/min/mg

B2: I459A: recombinant Ndi1 mutant I459A (protein, UniProt P32340 27-513, looked up, variant I459A)
Rotenone-insensitive …: B1 Rotenone-insensitive … with D418L, I433A
Q: With B2 as the molecule, how does the Km read?
A: 40.2 ± 4.1 µM

Q: And the “increase of Km value” value?
A: 1.8 fold

Q: What about the Vmax of the same molecule?
A: 2.90 ± 0.0042 µmol/min/mg

B3: I459W: recombinant Ndi1 mutant I459W (protein, UniProt P32340 27-513, looked up, variant I459W)
Rotenone-insensitive …: B1 Rotenone-insensitive … with D418L, I433W
Q: B3 was tested. Which Km did it give?
A: 75.6 ± 12 µM

Q: And the “increase of Km value” value?
A: 3.3 fold

Q: What about the Vmax of the same molecule?
A: 58.0 ± 1.5 µmol/min/mg

B4: W63F: recombinant Ndi1 mutant W63F (protein, UniProt P32340 27-513, looked up, variant W63F)
Rotenone-insensitive …: B1 Rotenone-insensitive … with W37F, D418L
Q: For B4, which Km is on record?
A: 53.1 ± 6.4 µM

Q: What about the “Vmax, % of the wild-type activity” value of the same molecule?
A: 137%

Q: What about the “increase of Km value” value of the same molecule?
A: 2.3 fold

Q: And the Vmax?
A: 1450 ± 27 µmol/min/mg

B5: A393G: recombinant Ndi1 mutant A393G (protein, UniProt P32340 27-513, looked up, variant A393G)
Rotenone-insensitive …: B1 Rotenone-insensitive … with A367G, D418L
Q: Which Km does the source give for B5 here?
A: 32.5 ± 1.9 µM

Q: And the “Vmax, % of the wild-type activity” value?
A: 83%

Q: And the “increase of Km value” value?
A: 1.4 fold

Q: What about the Vmax of the same molecule?
A: 882 ± 7.6 µmol/min/mg

B6: Q394G: recombinant Ndi1 mutant Q394G (protein, UniProt P32340 27-513, looked up, variant Q394G)
Rotenone-insensitive …: B1 Rotenone-insensitive … with Q368G, D418L
Q: Which Km does the source give for B6 here?
A: 30.8 ± 3.4 µM

Q: And the “Vmax, % of the wild-type activity” value?
A: 43%

Q: What about the “increase of Km value” value of the same molecule?
A: 1.4 fold

Q: What about the Vmax of the same molecule?
A: 452 ± 8.1 µmol/min/mg

B7: H397A: recombinant Ndi1 mutant H397A (protein, UniProt P32340 27-513, looked up, variant H397A)
Rotenone-insensitive …: B1 Rotenone-insensitive … with H371A, D418L
Q: B7 was tested. Which Km did it give?
A: 35 ± 2.7 µM

Q: What about the “Vmax, % of the wild-type activity” value of the same molecule?
A: 44%

Q: What about the “increase of Km value” value of the same molecule?
A: 1.5 fold

Q: What about the Vmax of the same molecule?
A: 463 ± 17 µmol/min/mg

B8: M485E: recombinant Ndi1 mutant M485E (protein, UniProt P32340 27-513, looked up, variant M485E)
Rotenone-insensitive …: B1 Rotenone-insensitive … with D418L, M459E
Q: How did the Km turn out when B8 was run?
A: 63.5 ± 7.8 µM

Q: What about the “Vmax, % of the wild-type activity” value of the same molecule?
A: 112%

Q: What about the “increase of Km value” value of the same molecule?
A: 2.8 fold

Q: And the Vmax?
A: 1190 ± 96 µmol/min/mg

B9: P92A: recombinant Ndi1 mutant P92A (protein, UniProt P32340 27-513, looked up, variant P92A)
Rotenone-insensitive …: B1 Rotenone-insensitive … with P66A, D418L
Q: With B9 as the molecule, how does the Km read?
A: 25.6 ± 2.2 µM

Q: And the “Vmax, % of the wild-type activity” value?
A: 1%

Q: What about the Vmax of the same molecule?
A: 11.3 ± 0.4 µmol/min/mg

B10: L447N: recombinant Ndi1 mutant L447N (protein, UniProt P32340 27-513, looked up, variant L447N)
Rotenone-insensitive …: B1 Rotenone-insensitive … with D418L, L421N
Q: B10 was tested. Which Km did it give?
A: 17.9 ± 1.8 µM

Q: What about the “Vmax, % of the wild-type activity” value of the same molecule?
A: 13%

Q: And the Vmax?
A: 140 ± 7.1 µmol/min/mg
